The values that follow come from patent US20160280799A1.

Substrate in test [1]: F protein of RSV (Long strain) (human respiratory syncytial virus, Long strain) (UniProt P12568)
The test can be described thus: cell-based or functional assay.

Test [2] addresses hemagglutinin (HA) of A/Vietnam/1194/04 (H5N1) on MLV(HA) pseudotyped virions (influenza A virus A/Vietnam/1194/04 (H5N1)).

Chain of F protein of RSV (Long strain) (human respiratory syncytial virus, Long strain) (P12568 26-574): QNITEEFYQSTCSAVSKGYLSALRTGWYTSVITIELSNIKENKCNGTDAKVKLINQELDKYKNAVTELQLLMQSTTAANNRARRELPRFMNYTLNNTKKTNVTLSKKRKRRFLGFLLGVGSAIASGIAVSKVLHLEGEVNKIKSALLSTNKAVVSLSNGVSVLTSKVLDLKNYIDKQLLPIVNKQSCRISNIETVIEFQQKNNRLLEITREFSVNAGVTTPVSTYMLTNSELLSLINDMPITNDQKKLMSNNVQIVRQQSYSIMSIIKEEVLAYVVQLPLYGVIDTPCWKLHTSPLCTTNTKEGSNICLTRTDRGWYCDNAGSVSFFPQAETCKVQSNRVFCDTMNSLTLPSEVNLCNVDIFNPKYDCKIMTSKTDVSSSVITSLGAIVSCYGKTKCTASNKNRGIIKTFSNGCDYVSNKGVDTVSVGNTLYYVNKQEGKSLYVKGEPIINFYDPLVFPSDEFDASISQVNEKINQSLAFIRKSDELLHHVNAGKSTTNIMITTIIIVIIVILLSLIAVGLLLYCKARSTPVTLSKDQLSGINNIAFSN

B1: building block of RSV407 (monovalent) (VHH)
VHH: EVQLVESGGGLVQAGGSLSISCAASGGSLSNYVLGWFRQAPGKEREFVAAINWRGDITIGPPNVEGRFTISRDNAKNTGYLQMNSLAPDDTAVYYCGAGTPLNPGAYIYDWSYDYWGRGTQVTVSS
On to B1, for which the IC50, neutralization of RSV infection, Long strain in test [1] lay in the range of 50 to 100 nM.

B2: 203-B12 (VHH)
VHH: EVQLVESGGGLVQPGGSLRLSCAASGFTFSSYAMGWVRRAPGEGLEWVSSISSGGALPTYADSVKGRFTISRDNVKNTLYLQMNSLKPEDTAVYSCEKYAGSMWTSERDAWGQGTQVTVSS
Molecule B2 showed an IC50 (read off the curve) in test [2] of 10 nM.

B3: 203-H9 (VHH)
VHH: EVQLVESGGGLVQPGGSLRLSCTGSGFTFSSYWMDWVRQTPGKDLEYVSGISPSGGNTDYADSVKGRFTISRDNAKNTLYLQMNSLQPEDTALYYCRRSLTLTDSPDLRSQGTQVTVSS
With B3, the IC50 (read off the curve) in test [2] was found to be 8 nM.

B4: 202-C8 (VHH)
VHH: EVQLVESGGGLVQPGGSLRLSCTGSGFTFSSYWMDWVRQTPGKDLEYVSGISPSGSNTDYADSVKGRFTISRDNAKNTLYLQMNSLKPEDTALYYCRRSLTLTDSPDLRSQGTQVTVSS
In test [2], B4 registered an IC50 (read off the curve) of 10 nM.
